Substitutions are numbered along the chain they refer to. Read-outs that look alike come from different tables or passages of the source. One block for each molecule: values may come before it.
What was measured:
piglet OBP = target: T1, piglet OBP (Sus scrofa, UniProt P81245); experiment: Competitive fluorescent binding assay: displacement of 1-AMA from piglet OBP by odorants IPMP and IBMP; parameters: species or system porcine
T1 construct: made in house; host or cells: Pichia pastoris GS115 (pPIC9, alpha-mating factor secretion signal)
T1 sequence (P81245 with tags, fused parts or gaps): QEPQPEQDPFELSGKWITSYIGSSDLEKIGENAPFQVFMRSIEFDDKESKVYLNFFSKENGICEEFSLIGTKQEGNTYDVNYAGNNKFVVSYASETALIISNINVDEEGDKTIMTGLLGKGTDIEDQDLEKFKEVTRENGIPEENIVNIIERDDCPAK
Description: The interaction of odorants with AMA complex was examined by monitoring the decrease in fluorescence intensity of protein/1-AMA complex upon the addition of competitor compounds.
In competitive binding assays, 1-AMA (10 μM) was equilibrated with protein (2 μM) at pH 7.2 50 mM sodium phosphate buffer and pH 3.0 50 mM citrate phosphate buffer, and titrated with increasing concentrations of odorants (0-100 μM) solubilized in 10% v/v methanol.
The affinity of OBPs for odorants was estimated by plotting the decrease of intensity of 1-AMA fluorescence at the emission maximum, (22). Odorant concentrations causing fluorescence decay to half-maximal intensity (IC50 values) were determined from the plot of (I−Imin)/(I0−Imin) against the competitor concentration; I0 is the maximum of fluorescence intensity of the protein/1-AMA complex; I is the fluorescence intensity after addition of an aliquot of competitor, and Imin the fluorescence intensity at saturating concentration of the competitor.

[1] = Protein-MP binding reaction, complex removed by 10 kDa cut-off PES membrane filtration, free IBMP by HS SPME GC/MS
Description: (§1) The freeze dried preparations of pIOBP and mMUPII were resuspended in phosphate citrate buffers at pH 3.0, 3.5 or 4.0 or phosphate buffer at pH 7.2, to final concentrations between 40-50 μM. The protein solutions, in a 2 ml volume, were spiked with IBMP or IPMP at 300 ng/l and allowed to incubate in a glass vial for 2 h, at RT on a gel shaker. In binding reactions using bentonite to remove the protein-MP complex, the binding reactions were performed in pH 3.5 and pH 4 using bentonite (3 g/l) to remove the protein and protein-ligand complex. To remove any residual bentonite from the reaction, samples were also filtered through a 0.22 μm Durapore filter unit (Millipore). In another assay using a 10 kDa cutoff filter to remove the protein-MP complex, the binding reactions were performed in buffer at pH 3 and pH 7.2. The reactions were centrifuged through a 10 KDa molecular weight cut-off (10MWCO) Omega filter unit made of polyethersulfone (PALL Life Sciences) to separate the proteins and bound MP from the free MP fraction. The concentration of free (unbound) MP fraction was then determined using HS SPME GC/MS. The limit of quantification for the compound IBMP was determined to be 6 ng/L and for IPMP was 2 ng/L, based on 10 times signal/noise. The limit of detection for MPs in the present system is 1.8 ng/L for IBMP and 0.6 ng/L for IPMP as calculated based on 3 times the signal/noise ratio. The data has been reported to the limit of quantification in the figures.
(§2) For the membrane filtration trials, the starting concentration of MPs in the reaction were tested, the free MPs after the 10MWCO filtration without addition of protein were tested, and the free MPs in solution after the protein binding reaction and filtration were tested.

[2] = Protein-MP binding reaction, complex removed by 10 kDa cut-off PES membrane filtration, free IPMP by HS SPME GC/MS
Description: as §1, §2

[3] = Protein-MP binding reaction, complex removed by bentonite fining and 0.22 μm filtration, free IBMP by GC/MS; details: Chardonnay Juice at pH 3.5
Description: as §1, with “The” for “The freeze dried preparations of pIOBP and mMUPII were resuspended in phosphate citrate buffers at pH 3.0, 3.5 or 4.0 or phosphate buffer at pH 7.2, to final concentrations between 40-50 μM. The”, “figures. […]” for “figures.”

[4] = physiological pH, published values; read-out: apparent Kd for IBMP / MPs, literature; cited from earlier work
[5] = pH of binding: 7.4; cited from earlier work
[6] = Intrinsic fluorescence of human OBPIIaα at pH 7.2 and pH 3.0; assay type: physicochemical; details: pH 3.0 vs pH 7.2
[7] = Binding of human OBPIIaα to fluorescent probes 1,8 ANS and 1-AMA; details: pH 7.2 and 3.0
Description: The excitation wavelength of 372 nm was used for ANS and fluorescence emission intensity was monitored at 475 nm. […] The excitation wavelength of 290 nm was used and fluorescence emission intensity was monitored at 490 nm.
Fluorescence ligand binding experiments were performed on a Photon Technology International (London, Canada) Quanta Master Model QM2001 fluorometer at room temperature (19-20° C.), using 1 cm light path quartz cuvettes (Hellma). Slit width of 2 nm was used for excitation and emission for assaying a proteins except ratOBP1F, for which excitation and emission slit width of 6 nm was used.

IC50 (piglet OBP; pH 3.0): 5.98 µM | Kd (piglet OBP; pH 3.0, calculated from IC50, read-out: Kd for piglet OBP): 2.34 µM | Kd (piglet OBP; pH 3, read-out: apparent Kd for pIOBP): 2.1 µM | higher affinity for pIOBP at pH 3.0 compared with pH 7.2 (piglet OBP; pH 3.0 vs pH 7.2): about 2 fold | IC50 (piglet OBP; pH 7.2): 32.8 µM | Kd (piglet OBP; pH 7.2, calculated from IC50, read-out: Kd for piglet OBP): 4.46 µM | Kd (piglet OBP; pH 7.2, read-out: apparent Kd for pIOBP): 4.5 µM
Molecule: COc1nccnc1C(C)C [IPMP, 2-isopropyl-3-methoxypyrazine]

IBMP concentration after protein treatment and 10 MWCO filtration ([1]; Chardonnay juice, limit of quantification): 6 ng/L | IBMP concentration after protein treatment and 10 MWCO filtration ([1]; pH 3.0 buffer, 300 ng/l spike, limit of quantification): 6 ng/L | IBMP concentration after protein treatment and 10 MWCO filtration ([1]; pH 7.2 buffer, 300 ng/l spike): 11 ng/L | IPMP concentration after protein treatment and 10 MWCO filtration ([2]; juice): 4 ng/L | IPMP concentration after protein treatment and 10 MWCO filtration ([2]; pH 3.0 buffer): 3 ng/L | IPMP concentration after protein treatment and 10 MWCO filtration ([2]; pH 7.2 buffer): 3 ng/L | IBMP reduction by protein beyond bentonite and filter [3]: further reduced
B1: mouse MUPII: mouse major urinary protein isoform II (Genbank AJ309921, Uniprot P11589), recombinant from P. pastoris (protein, UniProt P11589 19-180, looked up)
Major urinary protein 2: EEASSTGRNFNVEKINGEWHTIILASDKREKIEDNGNFRLFLEQIHVLEKSLVLKFHTVRDEECSELSMVADKTEKAGEYSVTYDGFNTFTIPKTDYDNFLMAHLINEKDGETFQLMGLYGREPDLSSDIKERFAKLCEEHGILRENIIDLSNANRCLQARE
modifications: recombinant from Pichia pastoris
Kd [4]: 0.94 µM

B2: mouse MUPI: mouse major urinary protein I (Uniprot P11588), differs from MUPII by three amino acid residues (protein, UniProt P11588 19-180, looked up)
Major urinary protein 1: B1 Major urinary protein 2 with K50N, K136Q, E140K
binding of methoxypyrazines [5]: binds both IPMP and IBMP

binding to fluorescent probes [7]: shows binding
B3: human OBPIIaα: human odorant binding protein IIa alpha (Genbank AJ251021, UniProt Q9NY56), recombinant from P. pastoris (protein, UniProt Q9NY56 16-170, looked up)
Odorant-binding protein 2a: LSFTLEEEDITGTWYVKAMVVDKDFPEDRRPRKVSPVKVTALGGGNLEATFTFMREDRCIQKKILMRKTEEPGKFSAYGGRKLIYLQELPGTDDYVFYCKDQRRGGLRYMGKLVGRNPNTNLEALEEFKKLVQHKGLSEEDIFMPLQTGSCVLEH
modifications: recombinant from Pichia pastoris
protein conformation on acidification (tryptophan emission maximum) [6]: does not modify protein conformation | Kd [4]: 0.9 to 1.1 µM

— patent publication US8859026B2, “Method for reducing methoxypyrazines in grapes and grape products” (Brock University, priority 2009, dated 2014)
